B1: membrane-bound IdeS (IdeS-tm) (protein)
chain 1: DSFSANQEIRYSEVTPYHVTSVWTKGVTPPAKFTQGEDVFHAPYVANQGWYDITKTFNGKDDLLCGAATAGNMLHWWFDQNKEKIEAYLKKHPDKQKIMFGDQELLDVRKVINTKGDQTNSELFNYFRDKAFPGLSARRIGVMPDLVLDMFINGYYLNVYKTQTTDVNRTYQEKDRRGGIFDAVFTRGDQSKLLTSRHDFKEKNLKEISDLIKKELTEGKALGLSHTYANVRINHVINLWGADFDSNGNLKAIYVTDSDSNASIGMKKYFVGVNSAGKVAISAKEIKEDNIGAQVLGLFTLSTGQDSWNQTN
chain 2: not shown
B2: secreted IdeS (IdeS-sec) (protein)
chain: B1 chain 1

Target: human polyclonal IgG

Protein | cleavage of IgG, SDS-PAGE with Coomassie stain and anti-human Fc blot | cleavage ELISA
B1 | Cleaved Ig appeared within 5 min and increased over time | –
B2 | – | IdeS-sec efficiently cleaved human polyclonal IgG at different time points
